Data on 2 molecules can be found in US20140274782A1, “AFFINITY REAGENTS AND METHODS FOR DETECTION, PURIFICATION, AND PROTEOMIC ANALYSIS OF METHYLATED PROTEINS” (The Board of Trustees of the Leland Stanford Junior …, priority 2013, published 2014).

Test [1] relates to 3×MBT domain of L3MBTL1. Nature of the test: Triple SILAC pull-down, 3xMBT/3xMBTD355N ratio (cytoplasmic, nuclear and chromatin fractions of 293T cells).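 Note: proteins quantified with MaxQuant, requiring at least two unique peptides and quantification in both label directions, normalized to the mean of proteins from a digested loading control.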 The following applies: SILAC ratio, pull-down by 3xMBT vs 3xMBTD355N, 293T cells. Format: binding, human.
In test [2] the target is T1, G9a and GLP (Homo sapiens, UniProt Q96KQ7+Q9H9B1).
T1 sequence (Q96KQ7 2-1210 limits assumed): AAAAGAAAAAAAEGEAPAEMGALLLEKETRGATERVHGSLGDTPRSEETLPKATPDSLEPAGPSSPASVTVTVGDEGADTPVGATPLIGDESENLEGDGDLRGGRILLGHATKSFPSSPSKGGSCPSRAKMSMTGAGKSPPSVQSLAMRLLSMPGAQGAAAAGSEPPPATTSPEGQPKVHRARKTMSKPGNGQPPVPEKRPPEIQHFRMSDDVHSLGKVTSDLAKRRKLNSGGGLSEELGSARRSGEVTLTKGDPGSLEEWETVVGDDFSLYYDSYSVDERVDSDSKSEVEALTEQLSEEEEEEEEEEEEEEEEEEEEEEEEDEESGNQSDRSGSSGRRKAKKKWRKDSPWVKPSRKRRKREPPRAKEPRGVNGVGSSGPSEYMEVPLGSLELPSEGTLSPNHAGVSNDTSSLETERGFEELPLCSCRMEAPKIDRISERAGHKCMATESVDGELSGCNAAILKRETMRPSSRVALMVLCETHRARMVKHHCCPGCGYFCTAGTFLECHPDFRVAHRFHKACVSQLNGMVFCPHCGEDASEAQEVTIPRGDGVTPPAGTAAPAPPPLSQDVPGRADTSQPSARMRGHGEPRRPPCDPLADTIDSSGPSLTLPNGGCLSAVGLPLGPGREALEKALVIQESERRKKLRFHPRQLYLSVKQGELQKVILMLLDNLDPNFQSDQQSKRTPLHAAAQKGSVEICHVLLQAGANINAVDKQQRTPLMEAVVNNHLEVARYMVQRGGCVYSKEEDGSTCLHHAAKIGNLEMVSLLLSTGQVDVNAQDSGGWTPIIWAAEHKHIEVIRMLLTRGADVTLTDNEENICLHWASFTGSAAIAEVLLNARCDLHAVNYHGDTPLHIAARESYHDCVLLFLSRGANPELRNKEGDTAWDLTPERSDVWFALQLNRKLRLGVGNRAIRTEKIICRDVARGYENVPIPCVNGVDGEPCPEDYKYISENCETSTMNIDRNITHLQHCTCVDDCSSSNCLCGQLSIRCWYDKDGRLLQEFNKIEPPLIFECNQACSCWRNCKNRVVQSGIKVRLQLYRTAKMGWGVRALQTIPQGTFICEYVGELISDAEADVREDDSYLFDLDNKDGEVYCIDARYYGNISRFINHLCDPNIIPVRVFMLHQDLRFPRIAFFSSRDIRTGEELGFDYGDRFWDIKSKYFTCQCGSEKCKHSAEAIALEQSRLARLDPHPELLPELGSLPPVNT
T1 sequence (Q9H9B1 2-1298 limits assumed): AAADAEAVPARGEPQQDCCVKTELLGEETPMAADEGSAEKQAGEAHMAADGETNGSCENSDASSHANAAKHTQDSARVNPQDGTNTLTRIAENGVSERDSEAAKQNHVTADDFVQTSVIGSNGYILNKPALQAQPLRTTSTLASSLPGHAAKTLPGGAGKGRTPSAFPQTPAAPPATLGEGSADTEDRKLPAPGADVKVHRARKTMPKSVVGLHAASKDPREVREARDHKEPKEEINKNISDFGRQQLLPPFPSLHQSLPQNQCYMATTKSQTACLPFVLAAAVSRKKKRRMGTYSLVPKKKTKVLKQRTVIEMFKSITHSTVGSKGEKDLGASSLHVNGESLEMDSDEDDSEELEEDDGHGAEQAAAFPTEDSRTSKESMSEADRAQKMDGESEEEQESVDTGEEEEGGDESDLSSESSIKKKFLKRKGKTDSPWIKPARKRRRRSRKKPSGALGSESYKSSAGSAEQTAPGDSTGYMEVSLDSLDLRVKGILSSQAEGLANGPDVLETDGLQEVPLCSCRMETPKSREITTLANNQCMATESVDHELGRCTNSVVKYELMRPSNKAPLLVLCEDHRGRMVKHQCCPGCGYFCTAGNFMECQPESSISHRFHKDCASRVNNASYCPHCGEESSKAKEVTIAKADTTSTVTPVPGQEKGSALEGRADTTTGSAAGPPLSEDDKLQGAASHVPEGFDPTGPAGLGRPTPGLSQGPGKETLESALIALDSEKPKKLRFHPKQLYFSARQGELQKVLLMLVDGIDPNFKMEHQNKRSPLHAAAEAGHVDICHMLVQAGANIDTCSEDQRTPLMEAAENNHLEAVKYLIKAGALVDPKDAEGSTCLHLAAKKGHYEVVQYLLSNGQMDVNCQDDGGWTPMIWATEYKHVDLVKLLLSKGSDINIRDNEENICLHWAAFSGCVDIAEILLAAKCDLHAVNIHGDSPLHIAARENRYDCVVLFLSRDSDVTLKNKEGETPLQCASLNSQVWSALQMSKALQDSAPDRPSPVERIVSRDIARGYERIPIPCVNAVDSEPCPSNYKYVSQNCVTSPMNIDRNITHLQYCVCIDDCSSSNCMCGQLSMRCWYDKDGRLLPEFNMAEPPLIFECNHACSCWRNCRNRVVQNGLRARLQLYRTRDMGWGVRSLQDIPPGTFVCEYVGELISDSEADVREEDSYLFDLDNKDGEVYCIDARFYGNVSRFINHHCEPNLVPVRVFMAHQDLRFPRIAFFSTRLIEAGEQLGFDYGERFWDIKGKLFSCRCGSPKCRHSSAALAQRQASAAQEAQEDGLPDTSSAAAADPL
Nature of the test: Triple SILAC pull-down after UNC0638 treatment of 293T cells, DMSO/UNC0638 ratio of protein captured by 3×MBT.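 Note: mass spectrometry (Q-Exactive) SILAC quantitation, DMSO/UNC0638 ratio computed after subtracting 3×MBTD355N mutant pull-down background, only proteins with at least twofold 3×MBT over mutant signal considered.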 It counts as cell-based. More on the design: cells were treated for 24 hours with UNC0638 at 2.5 μM or DMSO vehicle control; endogenous in cells; host or cells: HEK 293T.

B1: Splicing regulatory glutamine/lysine-rich protein 1 (protein, UniProt Q8N9Q2 1-155, looked up)
Protein SREK1IP1: MAVPGCNKDSVRAGCKKCGYPGHLTFECRNFLRVDPKRDIVLDVSSTSSEDSDEENEELNKLQALQEKRINEEEEKKKEKSKEKIKLKKKRKRSYSSSSTEEDTSKQKKQKYQKKEKKKEKKSKSKKGKHHKKEKKKRKKEKHSSTPNSSEFSRK
As to B1, the “Protein Ratios 3xMBT/D355N” value in test [1] came out at 2.9. The “Protein Ratios DMSO/UNC0638” value in test [2] (SILAC ratio of protein captured by 3xMBT, 293T cells treated 24 hours with UNC0638 at 2.5 μM or DMSO) is reported as 4.4.

B2: ACIN1: a known G9a substrate (protein, UniProt Q9UKV3 1-1341, looked up)
Apoptotic chromatin …: MWRRKHPRTSGGTRGVLSGNRGVEYGSGRGHLGTFEGRWRKLPKMPEAVGTDPSTSRKMAELEEVTLDGKPLQALRVTDLKAALEQRGLAKSGQKSALVKRLKGALMLENLQKHSTPHAAFQPNSQIGEEMSQNSFIKQYLEKQQELLRQRLEREAREAAELEEASAESEDEMIHPEGVASLLPPDFQSSLERPELELSRHSPRKSSSISEEKGDSDDEKPRKGERRSSRVRQARAAKLSEGSQPAEEEEDQETPSRNLRVRADRNLKTEEEEEEEEEEEEDDEEEEGDDEGQKSREAPILKEFKEEGEEIPRVKPEEMMDERPKTRSQEQEVLERGGRFTRSQEEARKSHLARQQQEKEMKTTSPLEEEEREIKSSQGLKEKSKSPSPPRLTEDRKKASLVALPEQTASEEETPPPLLTKEASSPPPHPQLHSEEEIEPMEGPAPAVLIQLSPPNTDADTRELLVSQHTVQLVGGLSPLSSPSDTKAESPAEKVPEESVLPLVQKSTLADYSAQKDLEPESDRSAQPLPLKIEELALAKGITEECLKQPSLEQKEGRRASHTLLPSHRLKQSADSSSSRSSSSSSSSSRSRSRSPDSSGSRSHSPLRSKQRDVAQARTHANPRGRPKMGSRSTSESRSRSRSRSRSASSNSRKSLSPGVSRDSSTSYTETKDPSSGQEVATPPVPQLQVCEPKERTSTSSSSVQARRLSQPESAEKHVTQRLQPERGSPKKCEAEEAEPPAATQPQTSETQTSHLPESERIHHTVEEKEEVTMDTSENRPENDVPEPPMPIADQVSNDDRPEGSVEDEEKKESSLPKSFKRKISVVSATKGVPAGNSDTEGGQPGRKRRWGASTATTQKKPSISITTESLKSLIPDIKPLAGQEAVVDLHADDSRISEDETERNGDDGTHDKGLKICRTVTQVVPAEGQENGQREEEEEEKEPEAEPPVPPQVSVEVALPPPAEHEVKKVTLGDTLTRRSISQQKSGVSITIDDPVRTAQVPSPPRGKISNIVHISNLVRPFTLGQLKELLGRTGTLVEEAFWIDKIKSHCFVTYSTVEEAVATRTALHGVKWPQSNPKFLCADYAEQDELDYHRGLLVDRPSETKTEEQGIPRPLHPPPPPPVQPPQHPRAEQREQERAVREQWAEREREMERRERTRSEREWDRDKVREGPRSRSRSRDRRRKERAKSKEKKSEKKEKAQEEPPAKLLDDLFRKTKAAPCIYWLPLTDSQIVQKEAERAERAKEREKRRKEQEEEEQKEREKEAERERNRQLEREKRREHSRERDRERERERERDRGDRDRDRERDRERGRERDRRDTKRHSRSRSRSTPVRDRGGRR
For the molecule B2, in test [2] (293T cells), the “change in amount captured by 3×MBT following UNC0638 treatment” value is on record as “decreased strongly”.
